The Human Domainome abundance scans (Beltran et al. 2025)
± gives the uncertainty stated by the source.

B1: POU domain, class 6, transcription factor 2, residues 609 to 663; numbered along this chain, P78424 (parent)
chain: KRRTSFTPQALEILNAHFEKNTHPSGQEMTEIAEKLNYDREVVRVWFCNKRQALK

Variants of: B1
Experiment: abundance fitness (aPCA) (normalised: wild type 0, dead -1); higher = more abundant; growth selection in yeast, the domain comes from the species named
Conditions: Homo sapiens

Variant | abundance fitness
E31T | -0.112 ± 0.33
E31W | -0.131 ± 0.18
A16K | -0.044 ± 0.1
V45W | -0.055 ± 0.14
E34S | -0.047 ± 0.19
E34L | -0.024 ± 0.15
F47G | -0.853 ± 0.068
F47P | -0.775 ± 0.1
F47Y | -0.162 ± 0.1
F47L | -0.782 ± 0.069
F47I | -0.782 ± 0.12
F47W | -0.168 ± 0.058
F47K | -0.722 ± 0.11
Y38S | 0.034 ± 0.059
Y38G | -0.2 ± 0.043
Y38C | 0.023 ± 0.074
Y38L | 0.006 ± 0.059
K35V | -0.112 ± 0.1
K35G | -0.087 ± 0.088
K35M | -0.062 ± 0.11
K35D | -0.139 ± 0.12
K50I | -0.916 ± 0.19
K50S | -0.21 ± 0.088
A10V | -0.227 ± 0.13

Variant | abundance fitness
A10D | -0.015 ± 0.15
A10C | -0.154 ± 0.23
I13W | -0.219 ± 0.14
I13G | -0.385 ± 0.099
I13T | -0.003 ± 0.19
I13M | -0.218 ± 0.12
I13F | -0.113 ± 0.18
I13E | -0.251 ± 0.21
N37Y | 0.127 ± 0.3
N37W | -0.444 ± 0.1
W46Y | 0.032 ± 0.23
W46G | -0.707 ± 0.11
D39W | -0.54 ± 0.094
D39H | -0.113 ± 0.062
D39N | -0.138 ± 0.073
K55N | -0.186 ± 0.27
S25N | -0.073 ± 0.19
R40D | 0.186 ± 0.12
R40Q | -0.12 ± 0.12
R40C | -0.064 ± 0.1
E12C | -0.261 ± 0.15
E12V | -0.331 ± 0.15
E12W | -0.233 ± 0.16
E12R | -0.107 ± 0.089

Variant | abundance fitness
E12A | -0.401 ± 0.14
E12D | -0.002 ± 0.3
L14F | -0.877 ± 0.24
L14A | -0.969 ± 0.14
L14D | -0.972 ± 0.2
E19A | 0.046 ± 0.074
F18C | -0.522 ± 0.11
F18V | -0.713 ± 0.081
F18R | -0.856 ± 0.074
F18M | -0.76 ± 0.15
F18H | -0.698 ± 0.2
F18Y | 0.107 ± 0.15
R51I | -0.226 ± 0.17
R51Q | -0.031 ± 0.16
R51K | -0.026 ± 0.14
T7P | 0.04 ± 0.13
T7C | -0.079 ± 0.1
T7D | -0.402 ± 0.22
T7V | -0.403 ± 0.098
L54Y | -0.417 ± 0.47
L54H | -0.159 ± 0.22
S5F | -0.031 ± 0.13
S5T | 0.12 ± 0.11
S5I | 0.079 ± 0.12

Variant | abundance fitness
S5G | 0.041 ± 0.055
S5E | 0.083 ± 0.079
S5C | -0.039 ± 0.084
C48R | -0.057 ± 0.19
C48W | 0.02 ± 0.37
Q52D | -0.119 ± 0.12
Q52E | 0.117 ± 0.18
Q52N | 0.014 ± 0.17
Q52L | -0.005 ± 0.071
Q52V | -0.161 ± 0.094
Q27M | -0.39 ± 0.16
Q27F | -0.737 ± 0.41
Q27N | -0.106 ± 0.18
Q27E | 0.05 ± 0.11
R3P | 0.004 ± 0.1
R3T | -0.134 ± 0.11
R3W | -0.265 ± 0.088
R3D | 0.054 ± 0.12
R3L | 0.057 ± 0.073
R3Q | -0.073 ± 0.17
T22F | -0.198 ± 0.13
T22V | 0.105 ± 0.11
T22R | 0.005 ± 0.065
T22P | 0.016 ± 0.1

Variant | abundance fitness
V42S | 0.029 ± 0.074
V42R | -0.176 ± 0.082
L36G | -0.823 ± 0.13
L36M | -0.175 ± 0.33
R44N | -0.195 ± 0.15
R44K | -0.195 ± 0.11
L11H | -0.482 ± 0.24
H23V | -0.086 ± 0.074
H23S | 0.036 ± 0.12
H23A | -0.062 ± 0.094
H23R | 0.011 ± 0.07
K1E | -0.632 ± 0.22
K1Y | -0.41 ± 0.34
K1H | -0.309 ± 0.2
K1S | -0.275 ± 0.14
P8N | -0.072 ± 0.29
V43I | -0.218 ± 0.13
V43C | -0.24 ± 0.15
V43K | -1.17 ± 0.24
V43T | -0.579 ± 0.1
V43F | -0.665 ± 0.24
T30E | -0.259 ± 0.22
R2N | 0.095 ± 0.1
R2E | 0.108 ± 0.12

Variant | abundance fitness
R2W | -0.334 ± 0.087
H17I | -0.028 ± 0.12
H17G | -0.369 ± 0.057
H17D | -0.156 ± 0.09
H17W | 0.011 ± 0.068
A33W | -1.01 ± 0.34
A33C | -0.199 ± 0.21
P24I | -0.21 ± 0.1
P24Q | -0.741 ± 0.14
P24H | -0.905 ± 0.17
P24W | -0.317 ± 0.067
P24E | -0.978 ± 0.11
E28N | -0.313 ± 0.13
E28V | -0.094 ± 0.11
E28K | -0.072 ± 0.37
A53R | -0.194 ± 0.096
A53P | -0.392 ± 0.12
A53H | 0.012 ± 0.24
N15D | -0.093 ± 0.15
N15V | -0.307 ± 0.087
N15C | -0.086 ± 0.13
E41V | -0.496 ± 0.071
E41W | -0.319 ± 0.078
E41Y | -0.321 ± 0.15

Variant | abundance fitness
E41K | 0.021 ± 0.13
E41D | -0.104 ± 0.14
E41F | -0.743 ± 0.14
N49D | -0.152 ± 0.16
N49M | -0.177 ± 0.11
N49S | -0.061 ± 0.096
N49P | -0.683 ± 0.25
N49R | -0.157 ± 0.084
T4G | -0.089 ± 0.081
T4L | -0.063 ± 0.079
I32N | -0.838 ± 0.23
I32Y | 0.031 ± 0.36
G26P | -0.004 ± 0.18
G26C | -0.027 ± 0.13
G26L | -0.054 ± 0.1
G26V | 0.073 ± 0.097
G26A | 0.035 ± 0.11
Q9E | -0.432 ± 0.2
Q9W | -0.184 ± 0.16
N21H | -0.182 ± 0.1
N21F | -0.659 ± 0.12
K20N | -0.227 ± 0.18
K20C | -0.289 ± 0.086
